What was measured:
[1] = molecular target: CD74 on dog lymphocytes and dog lymphoma cells (dog); assay: flow cytometry, dog lymphoma aspirate; none 3.24
[2] = molecular target: CD74 on dog lymphocytes and dog lymphoma cells (dog); assay: flow cytometry, dog lymphoma aspirate; none 4.48
[3] = molecular target: CD74 on human cells (human) (UniProt P04233); assay: indirect FACS, Raji cells, FITC-GAH Fc 2nd Ab; none 6.8
[4] = molecular target: CD74 on human cells (human) (UniProt P04233); assay: indirect FACS, Daudi cells, FITC-GAH Fc 2nd Ab; none 3.1
[5] = molecular target: CD74 on human cells (human) (UniProt P04233); assay: indirect FACS, Ramos cells, FITC-GAH Fc 2nd Ab; none 3.1
[6] = molecular target: CD74 on dog lymphocytes and dog lymphoma cells (dog); assay: flow cytometry, canine lymphoma aspirate 150836; none 3.2
[7] = molecular target: CD74 on dog lymphocytes and dog lymphoma cells (dog); assay: flow cytometry, canine lymphoma aspirate 150836; none 4.5
[8] = molecular target: CD74 on human cells (human) (UniProt P04233); assay: indirect FACS, Namalwa cells, FITC-GAH Fc 2nd Ab; none 2.5
[9] = molecular target: CD74 on human cells (human) (UniProt P04233); assay: indirect FACS, SU-DHL-6 cells, FITC-GAH Fc 2nd Ab; none 4.6
[10] = molecular target: CD74 on human cells (human) (UniProt P04233); assay: indirect FACS, WSU-FSCCL cells, FITC-GAH Fc 2nd Ab; none 2.6
[11] = molecular target: CD74 on human cells (human) (UniProt P04233); assay: indirect flow cytometry, RL cells, FITC-GAH Fc 2nd Ab; none 2.4
[12] = molecular target: CD74 on human cells (human) (UniProt P04233); assay: indirect flow cytometry, Raji cells, FITC-GAH Fc 2nd Ab; none 6.9
[13] = molecular target: CD74 on human cells (human) (UniProt P04233); assay: indirect flow cytometry, Namalwa cells, FITC-GAH 2nd Ab; none 2.52
[14] = molecular target: CD74 on human cells (human) (UniProt P04233); assay: indirect flow cytometry, Daudi cells, FITC-GAH Fc 2nd Ab; none 3.2
[15] = molecular target: CD74 on human cells (human) (UniProt P04233); assay: indirect flow cytometry, Ramos cells, FITC-GAH Fc 2nd Ab; none 3.1
[16] = molecular target: CD74 on human cells (human) (UniProt P04233); assay: indirect flow cytometry, Namalwa cells, FITC-GAH Fc 2nd Ab; none 2.6
[17] = molecular target: CD74 on human cells (human) (UniProt P04233); assay: indirect flow cytometry, SU-DHL-6 cells, FITC-GAH Fc 2nd Ab; none 4.6
[18] = molecular target: CD74 on human cells (human) (UniProt P04233); assay: indirect flow cytometry, WSU-FSCCL cells, FITC-GAH Fc 2nd Ab; none 2.7

CD74 on human cells (human), sequence (P04233 whole entry): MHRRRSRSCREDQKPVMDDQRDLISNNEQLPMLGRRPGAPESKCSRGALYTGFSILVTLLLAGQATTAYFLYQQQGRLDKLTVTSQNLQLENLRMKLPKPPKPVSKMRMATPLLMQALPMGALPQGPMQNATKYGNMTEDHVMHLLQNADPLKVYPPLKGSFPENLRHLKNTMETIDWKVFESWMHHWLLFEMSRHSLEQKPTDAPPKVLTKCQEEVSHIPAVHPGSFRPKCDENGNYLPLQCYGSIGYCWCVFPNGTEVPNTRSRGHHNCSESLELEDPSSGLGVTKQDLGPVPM

mean FL [1]: 3.33 | % Positive [2]: 4.71% | geometric mean fluorescence [3]: 95.1 | geometric mean fluorescence [4]: 48.8 | geometric mean fluorescence [5]: 23.2 | mean FL [6]: 3.3 | % Positive [7]: 4.7% | geometric mean fluorescence [8]: 7.81 | geometric mean fluorescence [9]: 17.3 | geometric mean fluorescence [10]: 8.66 | geometric mean fluorescence [11]: 7.9 | geometric mean fluorescence [12]: 95.1 | geometric mean fluorescence [13]: 10.1 | geometric mean fluorescence [14]: 48.8 | geometric mean fluorescence [15]: 23.3 | geometric mean fluorescence [16]: 7.8 | geometric mean fluorescence [17]: 17.3 | geometric mean fluorescence [18]: 8.7
Substance: hLL1 (milatuzumab, humanized anti-CD74) (antibody)

From patent publication US20160355591A1
